Measured values: patent US20250152742A1, “COMPOSITIONS AND METHODS FOR NEUROLOGICAL DISEASES” (Trames Bio, Inc., priority 2022, published 2025)

Test system: engineered chimeric receptor SEQ ID NO: 33 and its mutants (human α7-nAChR ligand binding domain / human GlyRα1 ion pore domain) in Lenti-X 293T cells
Assay: YFP fluorescence quenching anion reporter plate reader assay (percent quench, EC50)
Type: cell-based
Conditions: for YFP fluorescence quenching using CNL001 (percent quench): receptor named in row; for YFP fluorescence quenching using Varenicline, 3 nM var: ligand Varenicline 3 nM; for YFP fluorescence quenching using Varenicline, 30 nM var: ligand Varenicline 30 nM; for YFP fluorescence quenching using Varenicline, 300 nM var: ligand Varenicline 300 nM; for YFP fluorescence quenching using Varenicline, 500 nM var: ligand Varenicline 500 nM; for YFP fluorescence quenching using Varenicline, 1 uM var: ligand Varenicline 1 uM
Description: To screen these mutant LGICs for those having novel response profiles to ligands, an anion reporter assay was developed to assess the function of the LGICs in a high throughput format. In this assay, cells expressing a YFP reporter whose fluorescence is quenched in the presence of anion are transfected with DNA encoding the channel of interest. Upon exposure to ligand, channels that are activated will flux anion, resulting in a dose-dependent quench of the YFP that can be detected on a plate reader. The greater the quench signal (i.e., the more positive the value), the higher the ligand activity on the receptor is.
Lenti-X 293T cells (LX293T, Clontech) were maintained in DMEM containing 10% FBS and 1% penicillin/streptomycin (Invitrogen). […] Two days before assay, cells were split at a density of 20,000 cells/well in a 96-well tissue culture plate coated with poly-d lysine (Thermo Scientific). The next day, the cells were transiently transfected with 0.1 μg of DNA per well using standard Fugene protocol (Promega). On the day of assay, cells were washed 2 times in 1X extracellular solution (1X ECS: 140 mM NaCl, 5 mM KCl, 1 mM MgCl2, 2 mM CaCl2, 10 mM HEPES, 10 mM glucose, pH 7.2, mOsms 300). After the last wash, 100 μL of 1X ECS was added to the wells and the plate was incubated at 37° C. for 30 min. While incubating the plate, the drugs were diluted to a 2X concentration in 1X ECS-Nal (same components as 1X ECS except the 140 mM NaCl was replaced by 140 mM Nal). The plates were then read on a Flexstation3 (Molecular Devices). Each well, 8 wells at a time, of the plate is read for 2 min using a Flexstation3 (Molecular Devices) as follows: 1) a baseline YFP fluorescence is read for 17 sec, 2) 100 μL of ligand is added, and 3) the changes in YFP fluorescence are then measured every 1.3 sec for 1 minute and 43 seconds. The percent quench is calculated from the average fluorescence of the last 10 seconds of the read divided by the baseline average of the first 15 seconds prior to the ligand addition.
FIGS. 1A-1J provide heat maps of the percent quench of YFP fluorescence following stimulation by various doses of either acetylcholine or the non-native ligand as indicated in the Figures. CODA71 (SEQ ID NO: 33) was used as a control, and CODA75 (SEQ ID NO: 29, a non-responding chimeric engineered receptor) was used as the negative control. Quenching of the fluorescence signal, as indicated by blue shaded cells, indicate the level of engineered receptor activation by the non-native ligand at that concentration.

B1: CODA238: engineered receptor: R101W in SEQ ID NO: 33 (protein)
chain: MRCSPGGVWLALAASLLHVSLQGEFQRKLYKELVKNYNPLERPVANDSQPLTVYFSLSLLQIMDVDEKNQVLTTNIWLQMSWTDHYLQWNVSEYPGVKTVWFPDGQIWKPDILLYNSADERFDATFHTNVLVNSSGHCQYLPPGIFKSSCPMDLKNFPMDVQTCKLKFGSWSYGGWSLDLQMQEADISGYIPNGEWDLVGIPGKRSERFYECCKEPYPDVTFTVTMRRRMGYYLIQMYIPSLLIVILSWISFWINMDAAPARVGLGITTVLTMTTQSSGSRASLPKVSYVKAIDIWMAVCLLFVFSALLEYAAVNFVSRQHKELLRFRRKRRHHKSPMLNLFQEDEAGEGRFNFSAYGMGPACLQAKDGISVKGANNSNTTNPPPAPSKSPEEMRKLFIQRAKKIDKISRIGFPMAFLIFNMFYWIIYKIVRREDVHNQ
modifications: synthetic sequence of chimeric LGIC
YFP fluorescence quenching using CNL001 (percent quench) (1 nM CNL001, first column so headed): 32.42%
YFP fluorescence quenching using CNL001 (percent quench) (1 nM CNL001, second column so headed): 54.768%
YFP fluorescence quenching using TC-5619/Bradanicline (percent quench) (3 nM brd (TC-5619/Bradanicline)): 74.7%
YFP fluorescence quenching using CNL001 (percent quench) (10 nM CNL001, first column so headed): 75.149%
YFP fluorescence quenching using CNL001 (percent quench) (10 nM CNL001, second column so headed): 75.339%
YFP fluorescence quenching using TC-5619/Bradanicline (percent quench) (30 nM brd (TC-5619/Bradanicline)): 76.78%
YFP fluorescence quenching using CNL001 (percent quench) (50 nM CNL001, first column so headed): 75.881%
YFP fluorescence quenching using CNL001 (percent quench) (50 nM CNL001, second column so headed): 77.844%
YFP fluorescence quenching using ABT-126 (percent quench) (50 nM abt (ABT-126)): −14.97%
YFP fluorescence quenching using CNL001 (percent quench) (100 nM CNL001, first column so headed): 78%
YFP fluorescence quenching using CNL001 (percent quench) (100 nM CNL001, second column so headed): 78.575%
YFP fluorescence quenching (percent quench) (100 nM CNL002): 2.95%
YFP fluorescence quenching using ABT-126 (percent quench) (100 nM abt (ABT-126)): −14.66%
YFP fluorescence quenching using AZD-0328 (percent quench) (100 nM azd0328): 22.94%
YFP fluorescence quenching using ABT-126 (percent quench) (300 nM abt (ABT-126)): −16.35%
YFP fluorescence quenching using AZD-0328 (percent quench) (300 nM azd0328): 75.38%
YFP fluorescence quenching using TC-5619/Bradanicline (percent quench) (300 nM brd (TC-5619/Bradanicline)): 77.01%
YFP fluorescence quenching using CNL001 (percent quench) (1 uM CNL001, first column so headed): 81.126%
YFP fluorescence quenching using CNL001 (percent quench) (1 uM CNL001, second column so headed): 79.482%
YFP fluorescence quenching (percent quench) (1 uM CNL002): 67.93%
YFP fluorescence quenching using ABT-126 (percent quench) (1 uM abt (ABT-126)): 50.02%
YFP fluorescence quenching (percent quench) (10 uM ach (acetylcholine)): −16.58%
YFP fluorescence quenching (percent quench) (30 uM CNL002): 73.02%
YFP fluorescence quenching using AZD-0328 (percent quench) (30 uM azd0328): 81.8%
YFP fluorescence quenching (percent quench) (100 uM ach (acetylcholine)): 75.18%
YFP fluorescence quenching (percent quench) (1 mM ach (acetylcholine)): 78.99%
YFP fluorescence quenching (percent quench) (3 mM ach (acetylcholine)): 75.74%
YFP fluorescence quenching using Facinicline, 30 nM fac (ligand Facinicline 30 nM): −19.61
YFP fluorescence quenching using Facinicline, 300 nM fac (ligand Facinicline 300 nM): 76.54
YFP fluorescence quenching using Facinicline, 30 uM fac (ligand Facinicline 30 uM): 87.94
YFP fluorescence quenching using TC-6987, 1 uM tc6987 (ligand TC-6987 1 uM): 72.47
YFP fluorescence quenching using TC-6987, 10 uM tc6987 (ligand TC-6987 10 uM): 72.04
YFP fluorescence quenching using TC-6987, 500 uM tc6987 (ligand TC-6987 500 uM): 76.56
YFP fluorescence quenching using Varenicline, 3 nM var (first column): 17.896
YFP fluorescence quenching using Varenicline, 3 nM var (second column): 12.564
YFP fluorescence quenching using Varenicline, 30 nM var (first column): 16.263
YFP fluorescence quenching using Varenicline, 30 nM var (second column): 22.117
YFP fluorescence quenching using Varenicline, 300 nM var (first column): 77.492
YFP fluorescence quenching using Varenicline, 300 nM var (second column): 79.056
YFP fluorescence quenching using Varenicline, 500 nM var (first column): 80.186
YFP fluorescence quenching using Varenicline, 500 nM var (second column): 80.065
YFP fluorescence quenching using Varenicline, 1 uM var (first column): 81.263
YFP fluorescence quenching using Varenicline, 1 uM var (second column): 80.702
